Laboratory results as given in IntAct's records for PubMed 17717528.

B1: Circadian clock oscillator protein KaiC (Thermosynechococcus elongatus (strain BP-1)), Q79V60 (parent)
chain: MTNLPEHQSSPTEQSSAEVKKIPTMIEGFDDISHGGLPQGRTTLVSGTSGTGKTLFAVQFLYNGITIFNEPGIFVTFEESPQDIIKNALSFGWNLQSLIDQGKLFILDASPDPDGQEVAGDFDLSALIERIQYAIRKYKATRVSIDSVTAVFQQYDAASVVRREIFRLAFRLKQLGVTTIMTTERVDEYGPVARFGVEEFVSDNVVILRNVLEGERRRRTVEILKLRGTTHMKGEYPFTINNGINIFPLGAMRLTQRSSNVRVSSGVKTLDEMCGGGFFKDSIILATGATGTGKTLLVSKFLETGCQQGERALLFAYEESRAQLSRNASSWGIDFEELERRGLLRIICAYPESAGLEDHLQIIKSEIADFKPSRVAIDSLSALARGVSNNAFRQFVIGVTGFAKQEEITGFFTNTTDQFMGSNSITESHISTITDTILLLQYVEIRGEMSRAINVFKMRGSWHDKGIREYVITEKGAEIRDSFRNFEGIISGTPTRISVDEKTELARIAKGMQDLESE
partner: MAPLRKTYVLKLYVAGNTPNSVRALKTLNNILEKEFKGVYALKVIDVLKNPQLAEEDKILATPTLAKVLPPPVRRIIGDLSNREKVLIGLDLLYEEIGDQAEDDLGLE
B2: Circadian clock oscillator protein KaiC (Thermosynechococcus elongatus (strain BP-1)), Q79V60 (parent)
chain: B1 chain
partner: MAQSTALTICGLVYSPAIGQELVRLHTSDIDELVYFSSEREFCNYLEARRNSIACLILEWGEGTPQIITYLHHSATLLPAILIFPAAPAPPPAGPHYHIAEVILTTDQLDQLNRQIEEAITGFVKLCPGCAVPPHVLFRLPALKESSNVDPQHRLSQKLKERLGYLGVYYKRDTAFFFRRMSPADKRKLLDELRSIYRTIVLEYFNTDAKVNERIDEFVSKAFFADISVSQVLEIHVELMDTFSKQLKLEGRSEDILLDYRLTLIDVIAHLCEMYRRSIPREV

Variants of: B1
Details: with kaib_thevb kaiB

| Variant | effect of a mutation on the interaction |
| --- | --- |
| MTNLPEHQSSPTEQSSAEVKKIPTMIEGFDDISHGGLPQGRTTLVSGTSGTGKTLFAVQFLYNGITIFNEPGIFVTFEESPQDIIKNALSFGWNLQSLIDQGKLFILDASPDPDGQEVAGDFDLSALIERIQYAIRKYKATRVSIDSVTAVFQQYDAASVVRREIFRLAFRLKQLGVTTIMTTERVDEYGPVARFGVEEFVSDNVVILRNVLEGERRRRTVEILKLRGTTHMKGEYPFTINNGINIFPLGAMRLTQRSSNVRVSSGVKTLDEMCGGGFFKDSIILATGATGTGKTLLVSKFLETGCQQGERALLFAYEESRAQLSRNASSWGIDFEELERRGLLRIICAYPESAGLEDHLQIIKSEIADFKPSRVAIDSLSALARGVSNNAFRQFVIGVTGFAKQEEITGFFTNTTDQFMGSNSITESHISAITDTILLLQYVEIRGEMSRAINVFKMRGSWHDKGIREYVITEKGAEIRDSFRNFEGIISGTPTRISVDEKTELARIAKGMQDLESE [T432A] | disrupting interaction |

Variants of: B2
Details: with kaia_thevb kaiA

| Variant | effect of a mutation on the interaction |
| --- | --- |
| MTNLPEHQSSPTEQSSAEVKKIPTMIEGFDDISHGGLPQGRTTLVSGTSGTGKTLFAVQFLYNGITIFNEPGIFVTFEESPQDIIKNALSFGWNLQSLIDQGKLFILDASPDPDGQEVAGDFDLSALIERIQYAIRKYKATRVSIDSVTAVFQQYDAASVVRREIFRLAFRLKQLGVTTIMTTERVDEYGPVARFGVEEFVSDNVVILRNVLEGERRRRTVEILKLRGTTHMKGEYPFTINNGINIFPLGAMRLTQRSSNVRVSSGVKTLDEMCGGGFFKDSIILATGATGTGKTLLVSKFLETGCQQGERALLFAYEESRAQLSRNASSWGIDFEELERRGLLRIICAYPESAGLEDHLQIIKSEIADFKPSRVAIDSLSALARGVSNNAFRQFVIGVTGFAKQEEITGFFTNTTDQFMGSNSITESHISAITDTILLLQYVEIRGEMSRAINVFKMRGSWHDKGIREYVITEKGAEIRDSFRNFEGIISGTPTRISVDEKTELARIAKGMQDLESE [T432A] | decreasing interaction |
